According to patent publication JP2006306895A (dated 2006):

What follows are binders tested against T1, ヒトPTHrP(1-34) (human) (assay: ELISA, plate-coated human PTHrP(1-34)).
T1 construct: Synthetic peptide, coated on ELISA plates (Peptide Institute) or mixed with antibody in the cAMP neutralisation assay; also called human parathyroid hormone related protein (1-34)

| binding result | Binder |
| --- | --- |
| binds | ヒト型化#23-57-137-1抗体 L鎖バージョン"j" (antibody, V domains shown, Humanized H chain version a with human Cγ1; human lambda L chain C region; also called hMBC1HcDNA/pCOS1 + hMBC1Ljλ/pCOS1; version j) VH: QVQLVESGGGVVQPGRSLRLSCAASGFTFSSYGMSWVRQAPGKGLEWVATISSGGSYTYYPDSVKGRFTISRDNSKNTLYLQMNSLRAEDTAVYYCARQTTMTYFAYWGQGTLVTVSS VL: QLVLTQSPSASASLGASVKLTCTLSSQHSTYTIEWYQQQPEKGPKYLMDLKQDGSHSTGDGIPDRFSGSSSGAERYLTISSLQSEDEADYYCGVGDTIKEQFVYVFGGGTKLTVLG |
| binds | ヒト型化#23-57-137-1抗体 L鎖バージョン"m" (antibody, V domains shown, Humanized H chain version a with human Cγ1; human lambda L chain C region; also called hMBC1HcDNA/pCOS1 + hMBC1Lmλ/pCOS1; version m) VH: QVQLVESGGGVVQPGRSLRLSCAASGFTFSSYGMSWVRQAPGKGLEWVATISSGGSYTYYPDSVKGRFTISRDNSKNTLYLQMNSLRAEDTAVYYCARQTTMTYFAYWGQGTLVTVSS VL: QLVLTQSPSASASLGASVKLTCTLSSQHSTYTIEWYQQQPEKGPRYLMDLKQDGSHSTGDGIPDRFSGSSSGAERYLTISSLQSEDEADYYCGVGDTIKEQFVYVFGGGTKLTVLG |
| binds | ヒト型化H鎖バージョン"a"とキメラL鎖を組み合わせた抗体 (antibody, V domains shown, Human Cγ1 H chain C region; also called humanized H chain version a + chimeric L chain) VH: QVQLVESGGGVVQPGRSLRLSCAASGFTFSSYGMSWVRQAPGKGLEWVATISSGGSYTYYPDSVKGRFTISRDNSKNTLYLQMNSLRAEDTAVYYCARQTTMTYFAYWGQGTLVTVSS VL: QLVLTQSSSASFSLGASAKLTCTLSSQHSTYTIEWYQQQPLKPPKYVMDLKQDGSHSTGDGIPDRFSGSSSGADRYLSISNIQPEDEAMYICGVGDTIKEQFVYVFGGGTKVTVLG |
| binds | ヒト型化#23-57-137-1抗体 L鎖バージョン"o" (antibody, V domains shown, Humanized H chain version a with human Cγ1; human lambda L chain C region; also called hMBC1HcDNA/pCOS1 + hMBC1Loλ/pCOS1; version o) VH: QVQLVESGGGVVQPGRSLRLSCAASGFTFSSYGMSWVRQAPGKGLEWVATISSGGSYTYYPDSVKGRFTISRDNSKNTLYLQMNSLRAEDTAVYYCARQTTMTYFAYWGQGTLVTVSS VL: QLVLTQSPSASASLGASVKLTCTLSSQHSTYTIEWYQQQPEKGPRYVMDLKQDGSHSTGDGIPDRFSGSSSGAERYLTISSLQSEDEADYYCGVGDTIKEQFVYVFGGGTKLTVLG |
| binds | ヒト型化#23-57-137-1抗体 L鎖バージョン"t" (antibody, V domains shown, Humanized H chain version a with human Cγ1; human lambda L chain C region; also called hMBC1HcDNA/pCOS1 + hMBC1Ltλ/pCOS1; version t) VH: QVQLVESGGGVVQPGRSLRLSCAASGFTFSSYGMSWVRQAPGKGLEWVATISSGGSYTYYPDSVKGRFTISRDNSKNTLYLQMNSLRAEDTAVYYCARQTTMTYFAYWGQGTLVTVSS VL: QLVLTQSPSASASLGASVKLTCTLSSQHSTYTIEWYQQQPEKGPRYVMDLKQDGSHSTGDGIPDRFSGSSSGAERYLTISSLQSEDEADYICGVGDTIKEQFVYVFGGGTKLTVLG |
| binds | ヒト型化#23-57-137-1抗体 L鎖バージョン"l" (antibody, V domains shown, Humanized H chain version a with human Cγ1; human lambda L chain C region; also called hMBC1HcDNA/pCOS1 + hMBC1Llλ/pCOS1; version l) VH: QVQLVESGGGVVQPGRSLRLSCAASGFTFSSYGMSWVRQAPGKGLEWVATISSGGSYTYYPDSVKGRFTISRDNSKNTLYLQMNSLRAEDTAVYYCARQTTMTYFAYWGQGTLVTVSS VL: QLVLTQSPSASASLGASVKLTCTLSSQHSTYTIEWYQQQPEKGPKYVMDLKQDGSHSTGDGIPDRFSGSSSGAERYLTISSLQSEDEADYYCGVGDTIKEQFVYVFGGGTKLTVLG |
| binds | ヒト型化#23-57-137-1抗体 L鎖バージョン"q" (antibody, V domains shown, Humanized H chain version a with human Cγ1; human lambda L chain C region; also called ヒト型化抗体バージョンq; hMBC1HcDNA/pCOS1 + hMBC1Lqλ/pCOS1) VH: QVQLVESGGGVVQPGRSLRLSCAASGFTFSSYGMSWVRQAPGKGLEWVATISSGGSYTYYPDSVKGRFTISRDNSKNTLYLQMNSLRAEDTAVYYCARQTTMTYFAYWGQGTLVTVSS VL: QLVLTQSPSASASLGASVKLTCTLSSQHSTYTIEWYQQQPEKGPKYLMDLKQDGSHSTGDGIPDRFSGSSSGAERYLTISSLQSEDEADYICGVGDTIKEQFVYVFGGGTKLTVLG |
